Data taken from publication PMC3290569, “Macro-to-Micro Structural Proteomics: Native Source Proteins for High-Throughput Crystallization” (PLoS ONE, 2012).

B1: Malate dehydrogenase (enzyme, Escherichia coli, UniProt P61889 1-312, looked up)
chain: MKVAVLGAAGGIGQALALLLKTQLPSGSELSLYDIAPVTPGVAVDLSHIPTAVKIKGFSGEDATPALEGADVVLISAGVARKPGMDRSDLFNVNAGIVKNLVQQVAKTCPKACIGIITNPVNTTVAIAAEVLKKAGVYDKNKLFGVTTLDIIRSNTFVAELKGKQPGEVEVPVIGGHSGVTILPLLSQVPGVSFTEQEVADLTKRIQNAGTEVVEAKAGGGSATLSMGQAAARFGLSLVRALQGEQGVVECAYVEGDGQYARFFSQPLLLGKNGVEERKSIGTLSAFEQNALEGMLDTLKKDIALGEEFVNK
notes: malate dehydrogenase, Escherichia coli, native source protein; identified with PDB 2PWZ; the PDB entry is the previously deposited structure that identified the protein; the crystallised protein is the native one; source: purified from E. coli DH5α cells (whole-proteome fractionation)
B2: Inorganic pyrophosphatase (enzyme, Escherichia coli, UniProt P0A7A9 1-176, looked up)
chain: MSLLNVPAGKDLPEDIYVVIEIPANADPIKYEIDKESGALFVDRFMSTAMFYPCNYGYINHTLSLDGDPVDVLVPTPYPLQPGSVIRCRPVGVLKMTDEAGEDAKLVAVPHSKLSKEYDHIKDVNDLPELLKAQIAHFFEHYKDLEKGKWVKVEGWENAEAAKAEIVASFERAKNK
notes: inorganic pyrophosphatase, Escherichia coli, native source protein; identified with PDB 1IPW; the PDB entry is the previously deposited structure that identified the protein; the crystallised protein is the native one; source: purified from E. coli DH5α cells (whole-proteome fractionation)
B3: Lysyl-tRNA synthetase (constitutive) (enzyme, Escherichia coli, UniProt P0A8N3 1-505, looked up)
chain: MSEQHAQGADAVVDLNNELKTRREKLANLREQGIAFPNDFRRDHTSDQLHAEFDGKENEELEALNIEVAVAGRMMTRRIMGKASFVTLQDVGGRIQLYVARDDLPEGVYNEQFKKWDLGDILGAKGKLFKTKTGELSIHCTELRLLTKALRPLPDKFHGLQDQEARYRQRYLDLISNDESRNTFKVRSQILSGIRQFMVNRGFMEVETPMMQVIPGGAAARPFITHHNALDLDMYLRIAPELYLKRLVVGGFERVFEINRNFRNEGISVRHNPEFTMMELYMAYADYKDLIELTESLFRTLAQDILGKTEVTYGDVTLDFGKPFEKLTMREAIKKYRPETDMADLDNFDSAKAIAESIGIHVEKSWGLGRIVTEIFEEVAEAHLIQPTFITEYPAEVSPLARRNDVNPEITDRFEFFIGGREIGNGFSELNDAEDQAQRFLDQVAAKDAGDDEAMFYDEDYVTALEHGLPPTAGLGIGIDRMVMLFTNSHTIRDVILFPAMRPVK
notes: lysyl-tRNA synthetase, constitutive form, Escherichia coli, native source protein; identified with PDB 1BBW; the PDB entry is the previously deposited structure that identified the protein; the crystallised protein is the native one; source: purified from E. coli DH5α cells (whole-proteome fractionation)
B4: 5-keto-4-deoxyuronate isomerase (enzyme, Escherichia coli, UniProt Q46938 1-278, looked up)
chain: MDVRQSIHSAHAKTLDTQGLRNEFLVEKVFVADEYTMVYSHIDRIIVGGIMPITKTVSVGGEVGKQLGVSYFLERRELGVINIGGAGTITVDGQCYEIGHRDALYVGKGAKEVVFASIDTGTPAKFYYNCAPAHTTYPTKKVTPDEVSPVTLGDNLTSNRRTINKYFVPDVLETCQLSMGLTELAPGNLWNTMPCHTHERRMEVYFYFNMDDDACVFHMMGQPQETRHIVMHNEQAVISPSWSIHSGVGTKAYTFIWGMVGENQVFDDMDHVAVKDLR
notes: 5-keto-4-deoxyuronate isomerase, Escherichia coli, native source protein; identified with PDB 1XRU; the PDB entry is the previously deposited structure that identified the protein; the crystallised protein is the native one; source: purified from E. coli DH5α cells (whole-proteome fractionation)
B5: Citrate synthase (enzyme, Escherichia coli, UniProt P0ABH7 1-427, looked up)
chain: MADTKAKLTLNGDTAVELDVLKGTLGQDVIDIRTLGSKGVFTFDPGFTSTASCESKITFIDGDEGILLHRGFPIDQLATDSNYLEVCYILLNGEKPTQEQYDEFKTTVTRHTMIHEQITRLFHAFRRDSHPMAVMCGITGALAAFYHDSLDVNNPRHREIAAFRLLSKMPTMAAMCYKYSIGQPFVYPRNDLSYAGNFLNMMFSTPCEPYEVNPILERAMDRILILHADHEQNASTSTVRTAGSSGANPFACIAAGIASLWGPAHGGANEAALKMLEEISSVKHIPEFVRRAKDKNDSFRLMGFGHRVYKNYDPRATVMRETCHEVLKELGTKDDLLEVAMELENIALNDPYFIEKKLYPNVDFYSGIILKAMGIPSSMFTVIFAMARTVGWIAHWSEMHSDGMKIARPRQLYTGYEKRDFKSDIKR
notes: citrate synthase, Escherichia coli, native source protein; identified with PDB 1NXG; the PDB entry is the previously deposited structure that identified the protein; the crystallised protein is the native one; source: purified from E. coli DH5α cells (whole-proteome fractionation)
B6: heat shock protein 31 (HSP31) (natural protein, Escherichia coli, UniProt P31658 1-283, looked up)
chain: MTVQTSKNPQVDIAEDNAFFPSEYSLSQYTSPVSDLDGVDYPKPYRGKHKILVIAADERYLPTDNGKLFSTGNHPIETLLPLYHLHAAGFEFEVATISGLMTKFEYWAMPHKDEKVMPFFEQHKSLFRNPKKLADVVASLNADSEYAAIFVPGGHGALIGLPESQDVAAALQWAIKNDRFVISLCHGPAAFLALRHGDNPLNGYSICAFPDAADKQTPEIGYMPGHLTWYFGEELKKMGMNIINDDITGRVHKDRKLLTGDSPFAANALGKLAAQEMLAAYAG
notes: Hsp31, Escherichia coli, native source protein; identified with PDB 1N57; the PDB entry is the previously deposited structure that identified the protein; the crystallised protein is the native one; source: purified from E. coli DH5α cells (whole-proteome fractionation)
B7: phosphoserine aminotransferase (enzyme, Escherichia coli, UniProt P23721 1-362, looked up)
chain: MAQIFNFSSGPAMLPAEVLKQAQQELRDWNGLGTSVMEVSHRGKEFIQVAEEAEKDFRDLLNVPSNYKVLFCHGGGRGQFAAVPLNILGDKTTADYVDAGYWAASAIKEAKKYCTPNVFDAKVTVDGLRAVKPMREWQLSDNAAYMHYCPNETIDGIAIDETPDFGADVVVAADFSSTILSRPIDVSRYGVIYAGAQKNIGPAGLTIVIVREDLLGKANIACPSILDYSILNDNGSMFNTPPTFAWYLSGLVFKWLKANGGVAEMDKINQQKAELLYGVIDNSDFYRNDVAKANRSRMNVPFQLADSALDKLFLEESFAAGLHALKGHRVVGGMRASIYNAMPLEGVKALTDFMVEFERRHG
notes: phosphoserine aminotransferase, Escherichia coli, native source protein; identified with PDB 1BJN; the PDB entry is the previously deposited structure that identified the protein; the crystallised protein is the native one; source: purified from E. coli DH5α cells (whole-proteome fractionation)
B8: ycaC gene product (natural protein, Escherichia coli, UniProt P21367 1-208, looked up)
chain: MTKPYVRLDKNDAAVLLVDHQAGLLSLVRDIEPDKFKNNVLALGDLAKYFNLPTILTTSFETGPNGPLVPELKAQFPDTPYIARPGNINAWDNEDFVKAVKATGKKQLIIAGVVTEVCVAFPALSAIEEGFDVFVVTDASGTFNEITRHSAWDRLSQAGAQLMTWFGVACELHRDWRNDIEGLATLFSNHIPDYRNLMTSYDTLTKQK
notes: ycaC gene product, Escherichia coli, native source protein; identified with PDB 1YAC; the PDB entry is the previously deposited structure that identified the protein; the crystallised protein is the native one; source: purified from E. coli DH5α cells (whole-proteome fractionation)

Target: the molecule itself
Assay: crystal structure; native source E. coli proteins already in the PDB, identified and solved by brute-force molecular replacement, not refined except to confirm the solution; oligomer seen in the crystal

Binding result, binds:
B1
B2
B3
B4
B5
B6
B7
B8
